Biological target: T1, B7-H3 of cynomolgus monkeys (Macaca fascicularis, UniProt A0A7N9CYV2)
T1 sequence (A0A7N9CYV2 29-534): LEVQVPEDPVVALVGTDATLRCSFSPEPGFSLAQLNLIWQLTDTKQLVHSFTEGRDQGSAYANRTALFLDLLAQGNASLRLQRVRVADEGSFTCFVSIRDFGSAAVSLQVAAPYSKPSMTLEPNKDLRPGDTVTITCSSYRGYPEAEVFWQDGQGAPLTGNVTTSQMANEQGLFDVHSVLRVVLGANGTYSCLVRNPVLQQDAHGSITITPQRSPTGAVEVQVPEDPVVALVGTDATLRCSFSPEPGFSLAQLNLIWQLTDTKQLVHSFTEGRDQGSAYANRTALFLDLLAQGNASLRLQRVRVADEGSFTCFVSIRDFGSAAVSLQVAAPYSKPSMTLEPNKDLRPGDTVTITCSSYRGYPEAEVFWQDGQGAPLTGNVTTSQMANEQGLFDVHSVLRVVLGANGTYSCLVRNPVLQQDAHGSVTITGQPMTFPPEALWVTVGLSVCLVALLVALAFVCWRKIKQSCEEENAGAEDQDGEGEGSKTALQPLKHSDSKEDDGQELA
Experiment: Cross-reactivity of anti-B7-H3 antibody
Type: binding

- cross-reactivity with B7-H3 of cynomolgus monkeys: cross-reactive
B1: mAb-A: anti-B7-H3 antibody isolated from hybridoma cells; murine VL SEQ ID NO:15, VH SEQ ID NO:16 (antibody, V domains shown)
VH: EVQQVESGGDLVKPGGSLKLSCAASGFTFSSYGMSWVRQTPDKRLEWVATINSGGSNTYYPDSLKGRFTISRDNAKNTLYLQMRSLKSEDTAMYYCARHDGGAMDYWGQGTSVTVSS
VL: DIQMTQSPASLSVSVGETVTITCRASESIYSYLAWYQQKQGKSPQLLVYNTKTLPEGVPSRFSGSGSGTQFSLKINSLQPEDFGRYYCQHHYGTPPWTFGGGTNLEIK
modifications: Synthetic: amino acid sequence of the VH Domain of anti-B7-H3 mAb-A; Synthetic: amino acid sequence of the VL Domain of the murine anti-B7-H3 antibody mAb-A

Source: patent US20250135022A1, “METHODS FOR THE USE OF A B7-H3 ANTIBODY-DRUG CONJUGATE IN COMBINATION WITH A PD-1 X CTLA-4 BISPECIFIC MOLECULE” (MACROGENICS, INC., priority 2022, published 2025)
